This note sets out measurements from patent publication USRE48522 (SURVAC, dated 2021).

Assay [1] has as its target HLA-B35 (human). Put plainly: assembly assay: HLA-B35 stabilisation; against sur46-54.
In assay [2] the target is HLA-B35 (human). Put plainly: assembly assay: HLA-B35 stabilisation, T2-B35 lysate, W6/32 IP, IEF gel.
For assay [3], the target named is HLA-B35 (human). Put plainly: assembly assay: HLA-B35 stabilisation; against sur51-59.

B1: Sur46Y9 (peptide)
peptide: CPTENEPDY
notes: Analogue of survivin46-54 with the C-terminal L replaced by Y
Take B1: the “fold higher affinity relative to the native peptide” value in the assay with HLA-B35 [1] lay within 5 to 10 fold. The same molecule showed a C50 with HLA-B35 [2] of 4 µM.

B2: Sur51Y9 (peptide)
peptide: EPDLAQCFY
notes: Analogue of survivin51-59 with the C-terminal F replaced by Y
On to B2, for which the “fold higher affinity relative to the native peptide” value with HLA-B35 [3] lay within 5 to 10 fold. The molecule also came in with a C50 in the assay with HLA-B35 [2] of 1.5 µM.
